Source: patent publication US20240228986A1, “ENGINEERED CELLS, ENZYMES, AND METHODS FOR PRODUCING CANNABINOIDS” (priority 2021, published 2024)

B1: GPS2-F11-MPT4: fusion protein, SEQ ID NO: 21 (protein)
chain: MKDVSLSSFDAHDLDLDKFPEVVRDRLTQFLDAQELTIADIGAPVTDAVAHLRSFVLNGGKRIRPLYAWAGFLAAQGHKNSSEKLESVLDAAASLEFIQACALIHDDIIDSSDTRRGAPTVHRAVEADHRANNFEGDPEHFGVSVSILAGDMALVWAEDMLQDSGLSAEALARTRDAWRGMRTEVIGGQLLDIYLESHANESVELADSVNRFKTAAYTIARPLHLGASIAGGSPQLIDALLHYGHDIGIAFQLRDDLLGVFGDPAITGKPAGDDIREGKRTVLLALALQRADKQSPEAATAIRAGVGKVTSPEDIAVITEHIRATGAEEEVEQRISQLTESGLAHLDDVDIPDEVRAQLRALAIRSTERRMGGAEAAAKEAAAKAGGSGGGSGGGGSGGSGGGGSGGGGSMSDNSIATKILNFGHTCWKLQRPYVVKGMISIACGLFGRELFNNRHLFSWGLMWKAFFALVPILSFNFFAAIMNQIYDVDIDRINKPDLPLVSGEMSIETAWILSIIVALTGLIVTIKLKSAPLFVFIYIFGIFAGFAYSVPPIRWKQYPFTNFLITISSHVGLAFTSYSATTSALGLPFVWRPAFSFIIAFMTVMGMTIAFAKDISDIEGDAKYGVSTVATKLGARNMTFVVSGVLLLNYLVSISIGIIWPQVFKSNIMILSHAILAFCLIFQTRELALANYASAPSRQFFEFIWLLYYAEYFVYVFI
modifications: GPS2-F11-MPT4, geranyl diphosphate synthase, membrane-bound prenyltransferase fusion protein
B2: MPT4: membrane-bound prenyltransferase, SEQ ID NO: 2, comparator (protein)
chain: MSDNSIATKILNFGHTCWKLQRPYVVKGMISIACGLFGRELFNNRHLFSWGLMWKAFFALVPILSFNFFAAIMNQIYDVDIDRINKPDLPLVSGEMSIETAWILSIIVALTGLIVTIKLKSAPLFVFIYIFGIFAGFAYSVPPIRWKQYPFTNFLITISSHVGLAFTSYSATTSALGLPFVWRPAFSFIIAFMTVMGMTIAFAKDISDIEGDAKYGVSTVATKLGARNMTFVVSGVLLLNYLVSISIGIIWPQVFKSNIMILSHAILAFCLIFQTRELALANYASAPSRQFFEFIWLLYYAEYFVYVFI
modifications: MPT4 (membrane-bound prenyltransferase)
B3: GPS3-F11-MPT4: fusion protein, SEQ ID NO: 20 (protein)
chain: MQLLNPPQKGKKAVEFDFNKYMDSKAMTVNEALNKAIPLRYPQKIYESMRYSLLAGGKRVRPVLCIAACELVGGTEELAIPTACAIEMIHTMSLMHDDLPCIDNDDLRRGKPTNHKIFGEDTAVTAGNALHSYAFEHIAVSTSKTVGADRILRMVSELGRATGSEGVMGGQMVDIASEGDPSIDLQTLEWIHIHKTAMLLECSVVCGAIIGGASEIVIERARRYARCVGLLFQVVDDILDVTKSSDELGKTAGKDLISDKATYPKLMGLEKAKEFSDELLNRAKGELSCFDPVKAAPLLGLADYVAFRQNGGAEAAAKEAAAKAGGSGGGSGGGGSGGSGGGGSGGGGSMSDNSIATKILNFGHTCWKLQRPYVVKGMISIACGLFGRELFNNRHLFSWGLMWKAFFALVPILSFNFFAAIMNQIYDVDIDRINKPDLPLVSGEMSIETAWILSIIVALTGLIVTIKLKSAPLFVFIYIFGIFAGFAYSVPPIRWKQYPFTNFLITISSHVGLAFTSYSATTSALGLPFVWRPAFSFIIAFMTVMGMTIAFAKDISDIEGDAKYGVSTVATKLGARNMTFVVSGVLLLNYLVSISIGIIWPQVFKSNIMILSHAILAFCLIFQTRELALANYASAPSRQFFEFIWLLYYAEYFVYVFI
modifications: GPS3-F11-MPT4, geranyl diphosphate synthase, membrane-bound prenyltransferase fusion protein

How the values were obtained:
Assay type in all cases: cell-based, Yarrowia
[1] = system: olivetolic acid; experiment: Fusions of different GPSs with MPT4, in vivo assay (Example 7); conditions: 1 mM olivetolic acid, 72 h quench; for CBGA / FCBGA: 2% glycerol, strain sCL-SE-0128; for CBGA/FCBGA: product ratio
Method: (§1) As described below, plasmids pCL-SE-0337, 0406, 0452 and 0453 were transformed into strain sCL-SE-0128. Multiple colonies per transformation were precultured for 24 h in YNB containing glycerol (2%), casamino acids (0.5%), and MES (100 mM pH 6.5). Pre-culture was used to inoculate assay medium comprised of YNB containing glycerol (2%), casamino acids (0.5%), MES (100 mM pH 6.5), and olivetolic acid (1 mM). Cultures were quenched after 72 h total growth and assayed for CBGA and F-CBGA. Averages and standard deviations were calculated from replicates.
However, sCL-SE-0128 expresses HMGR and GPS1.1 to increase intracellular GPP levels for prenylation of OA to CBGA. The plasmids that were transformed contain a gene expressing a fusion between two different GPSs and a prenyl-transferase. The same linker is used for all constructs. […] Additionally, as illustrated by GPS2 (pCL-SE-0453), certain GPS-MPT combinations result in very high CBGA/ FCBGA ratios.
(§2) Overnight YPD (10 g/L yeast extract, 20 g/L peptone, 2% dextrose) cultures were inoculated from glycerol stocks of the appropriate strain and grown at 30° C. with 250 rpm shaking. Once cultures had reached an OD600 of 4-6, cultures were centrifuged at 500×g for 5 min, supernatants were discarded, and cell pellets were resuspended in equal volume of water. Resuspended cells were centrifuged at 500×g for 5 min, supernatants were discarded, and cells were resuspended in a volume (75 μL×OD×Vculture) of transformation cocktail (45% PEG-400, 0.1 M LiAc, 0.1 M DTT, and 25 ug/100 μL SS Salmon Sperm DNA). For each transformation, >1 μg of plasmid DNA was added to 55 μL cells/transformation cocktail and vortexed for 2 s. Transformations were incubated at 39° C. for 1 h with 250 rpm shaking. Transformations were resuspended in 750 μL YPD with 1 M sorbitol and recovered at 30° C. overnight with 250 rpm shaking. The next day, transformations were centrifuged at 500×g for 5 min, supernatants were discarded, and cell pellets were resuspended in 750 YPD. Resuspended transformations were plated on YPD with appropriate selection or YNBD (6.71 g/L yeast nitrogen base+nitrogen, 0.5% casamino acids, 2% dextrose) agar plates and grown at 30° C. for 2 days. Individual colonies were patched onto YPD plates with appropriate selection or YNBD plates and grown at 30° C. overnight. Patches were used to inoculate 0.5 mL YPD with appropriate selection or YNBD precultures in 96 w blocks and grown at 30° C. for 24-48 h with 1000 rpm shaking. For assays, 0.5 mL YPD with appropriate selection or YNBD cultures containing substrate were inoculated with 2 μL from precultures and grown at 30° C. for 2-4 days with 1000 rpm shaking with 2% glucose added every 24 h. Assay cultures were quenched by addition of 0.5 mL ethanol with 0.2% formic acid and 0.5 mg/mL pentyl-benzoic acid. Precipitates were pelleted by centrifuging at 4600×g for 10 min and then 200 μL was transferred to fresh plates, sealed, and analyzed via HPLC.
(§3) All samples were quenched with equal volume of EtOH containing 0.2 mg/mL internal standard (3,5-Diisopropyl-2-hydroxybenzoic acid CAS #2215-21-6) centrifuged, and clarified solutions were analyzed by HPLC-MS
(§4) • Column: 2.1×50 mm COSMOCORE PBr (Nacalai USA, Inc.) • Mobile Phase: A; 0.1% formic acid in water, B; 0.1% formic acid in acetonitrile • Flow: 0.45 mL/min • Temp: % 50 Celsius • Gradient: 20%B at 0 min, 70%B at 2.3 min, 89% B at 4.2 min, 20% B at 4.3 min, 20%B at 6 min

[2] = system: olivetolic acid; experiment: MPT fusions with GPS1.1 vs unfused MPTs, OA feed (Example 8, Table 9); conditions: 2 mM olivetolic acid, 48 h quench
Method: (§5) As described below, plasmids pCL-SE-0406, pCL-SE-0664, pCL-SE-0663, pCL-SE-0662, pCL-SE-0380 (MPT4), pCL-SE-0337.MPT21, pCL-SE-0337.MPT26, and pCL-SE-0337.MPT31 were transformed into strain sCL-SE-0128. Multiple colonies per transformation were precultured for 48 h in YNB containing glucose (2%), casamino acids (0.5%), and MES (100 mM pH 6.5). Pre-culture was used to inoculate assay medium comprised of YNB containing glucose (2%), casamino acids (0.5%), MES (100 mM pH 6.5), and olivetolic acid (2 mM). Cultures were quenched with equal volume of ethanol after 48 h total growth and assayed for CBGA and FCBGA. Averages and standard deviations were calculated from replicates.
as §2, §3, §4

[3] = system: divarinic acid; experiment: MPT fusions with GPS1.1 vs unfused MPTs, DVA feed (Example 9, Table 11); conditions: 2 mM divarinic acid, 2% glucose, quenched after 48 h; strain sCL-SE-0128
Method: as §5, with “pCL-SE-0337.MPT21,” for “pCL-SE-0337.MPT21, pCL-SE-0337.MPT26, and pCL-SE-0337.MPT31”, “divarinic” for “olivetolic”, “quenched” for “quenched with equal volume of ethanol”, “CBGVA” for “CBGA”, “FCBGVA.” for “FCBGA.”
as §2, §3, §4

[4] = system: olivetolic acid; experiment: Unfused rMPTs and APTs, CBGA/FCBGA formation in vivo assay (Example 4); conditions: 2 mM olivetolic acid, 48 h quench
Method: (§6) As described below, plasmids pCL-SE-0380 (MPT4), pCL-SE-0337.MPT4, pCL-SE-0338.APT73.74, and pCL-SE-0338.APT73.77 were transformed into strain sCL-SE-0128. Multiple colonies per transformation were precultured for 48 h in YNB containing glucose (2%), casamino acids (0.5%), and MES (100 mM pH 6.5). Pre-culture was used to inoculate assay medium comprised of YNB containing glucose (2%), casamino acids (0.5%), MES (100 mM pH 6.5), and olivetolic acid or divarinic acid (2 mM). Cultures were quenched with equal volume of ethanol after 48 h total growth and assayed for CBG(V)A and FCBG(V)A. Averages and standard deviations were calculated from replicates.
as §2, §3, §4

[5] = system: olivetolic acid; experiment: Linkers for GPS1.1-MPT4 fusions, in vivo assay (Example 6); conditions: 1 mM olivetolic acid, 72 h quench
Method: as §1, with “described in detail” for “described”, “pCL-SE-0380 (MPT4), pCL-SE-0406, pCL-SE-0435,” for “pCL-SE-0337, 0406, 0452”, “pCL-SE-0437” for “0453”, “Four separate” for “Multiple”, “by mixing with equal volume of EtOH. Enzymes produced” for “and assayed for”, “FCBGA.” for “F-CBGA.”
However, sCL-SE-0128 expresses HMGR and GPS1.1 to increase intracellular GPP levels for prenylation of OA to CBGA. The plasmids that were transformed contain either a gene expressing a prenyl-transferase (pCL-SE-0380 (MPT4)) or a gene expressing a fusion between GPS1.1 and a prenyl-transferase with different linker sequences.
as §2, §3, §4

[6] = system: divarinic acid; experiment: Unfused rMPTs and APTs, CBGVA/FCBGVA formation in vivo assay (Example 4); conditions: 2 mM divarinic acid, 2% glucose, 48 hour quench; strain sCL-SE-0128
Method: as §6, §2, §3, §4

[7] = 2% glycerol, strain sCL-SE-0128

| Molecule | CBGA [1] [µM] | FCBGA [1] [µM] | CBGA/FCBGA [1] | CBGA ([2]; 2% glucose, strain sCL-SE-0128) [µM] | FCBGA ([2]; 2% glucose, strain sCL-SE-0128) [µM] | CBGA/FCBGA ([2]; product ratio) | CBGVA [3] [µM] | FCBGVA [3] [µM] | CBGA ([4]; 2% glucose, strain sCL-SE-0128) [µM] | FCBGA ([4]; 2% glucose, strain sCL-SE-0128) [µM] | CBGA/FCB ([4]; product ratio) | CBGA [5, 7] [µM] | FCBGA [5, 7] [µM] | CBGA/FCBGA ([5]; product ratio) | CBGVA [6] [µM] | FCBGVA [6] [µM] |
| --- | --- | --- | --- | --- | --- | --- | --- | --- | --- | --- | --- | --- | --- | --- | --- | --- |
| B1 | 282 ± 69 | 11 ± 2 | 26.8 | – | – | – | – | – | – | – | – | – | – | – | – | – |
| B2 | – | – | – | 123 ± 13 | 23 ± 2 | 5.3 | 19 ± 2 | 0 ± 0 | 123 ± 13 | 23 ± 2 | 5.3 | 230 ± 15 | 51 ± 1 | 4.5 | 19 ± 2 | 0 ± 0 |
| B3 | 255 ± 22 | 41 ± 3 | 6.2 | – | – | – | – | – | – | – | – | – | – | – | – | – |
